Positions of bridges follow the written chain, without caps; N, C: chain ends.
Columns and labels:
[1] = target: T1, N-terminally biotinylated PADI4 (bio-His-PADI4), recombinant human peptidylarginine deiminase IV (human, UniProt Q9UM07 1-663, biotin on the N-terminal Avi-Tag (BirA co-expression)); assay: SPR
[2] = target: T1, N-terminally biotinylated PADI4 …; assay: SPR; 10 mM CaCl2 + Cl-amidine
[3] = target: T1, N-terminally biotinylated PADI4 …; assay: SPR; 0 mM CaCl2
[4] = target: T1, N-terminally biotinylated PADI4 …; assay: SPR; remark: listed apart in the source
PADI4 variant R394A = PADI4 variant R394A (human, UniProt Q9UM07 1-663, R394 with an alanine); assay: SPR
PADI4 variant C166F = PADI4 variant C166F (human, UniProt Q9UM07 1-663, C166 with bulky phenylalanine); assay: SPR
PADI4 variant E167A = PADI4 variant E167A (human, UniProt Q9UM07 1-663, E167A); assay: SPR
PADI4 variant D168A = PADI4 variant D168A (human, UniProt Q9UM07 1-663, D168A); assay: SPR
PADI4_D165A = PADI4_D165A (human, UniProt Q9UM07 1-663, D165A); assay: SPR
PADI4_N373A = assay: SPR
[5] = target: T1, N-terminally biotinylated PADI4 …; assay: SPR; 10 mM CaCl2

T1 sequence (Q9UM07 whole entry): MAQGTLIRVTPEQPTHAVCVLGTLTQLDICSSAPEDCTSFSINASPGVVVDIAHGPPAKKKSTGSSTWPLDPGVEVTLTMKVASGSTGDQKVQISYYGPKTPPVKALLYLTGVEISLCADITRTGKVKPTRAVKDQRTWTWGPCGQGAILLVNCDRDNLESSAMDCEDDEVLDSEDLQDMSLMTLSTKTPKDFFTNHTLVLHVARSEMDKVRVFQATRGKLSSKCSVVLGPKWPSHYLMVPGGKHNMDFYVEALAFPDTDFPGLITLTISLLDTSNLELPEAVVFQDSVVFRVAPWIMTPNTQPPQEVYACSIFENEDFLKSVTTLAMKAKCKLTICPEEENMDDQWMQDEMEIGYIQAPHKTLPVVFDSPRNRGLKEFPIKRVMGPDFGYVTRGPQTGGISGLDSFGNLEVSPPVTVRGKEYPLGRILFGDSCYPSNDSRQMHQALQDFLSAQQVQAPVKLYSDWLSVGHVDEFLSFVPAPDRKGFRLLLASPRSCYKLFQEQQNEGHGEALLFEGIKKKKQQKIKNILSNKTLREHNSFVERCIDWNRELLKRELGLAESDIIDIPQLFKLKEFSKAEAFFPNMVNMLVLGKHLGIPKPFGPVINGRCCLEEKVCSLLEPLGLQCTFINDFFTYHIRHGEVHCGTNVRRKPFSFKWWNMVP
PADI4 variant E167A, sequence (Q9UM07 whole entry E167A): as the sequence (Q9UM07 whole entry) above, with E167A counted along it
PADI4_D165A, sequence (Q9UM07 whole entry D165A): as the sequence (Q9UM07 whole entry) above, with D165A counted along it
PADI4 variant C166F, sequence (Q9UM07 whole entry C166F): as the sequence (Q9UM07 whole entry) above, with C166F counted along it
PADI4 variant R394A, sequence (Q9UM07 whole entry R394A): as the sequence (Q9UM07 whole entry) above, with R394A counted along it
PADI4 variant D168A, sequence (Q9UM07 whole entry D168A): as the sequence (Q9UM07 whole entry) above, with D168A counted along it

For {CH2CO}-YESCKYRQVLQL-NH2 (thioether N-4) [PADI4_11 variant with lysine at R5], which Kd [1] is on record?
Its Kd is 1400 nM.

B1: PADI4_11 (peptide)
chain: {CH2CO}-YESCRYRQVLQL-NH2
modifications: thioether N-4
SMILES: CC(C)C[C@H](NC(=O)[C@H](CCC(N)=O)NC(=O)[C@H](CC(C)C)NC(=O)[C@@H](NC(=O)[C@H](CCC(N)=O)NC(=O)[C@H](CCCNC(=N)N)NC(=O)[C@H](Cc1ccc(O)cc1)NC(=O)[C@H](CCCNC(=N)N)NC(=O)[C@@H]1CSCC(=O)N[C@@H](Cc2ccc(O)cc2)C(=O)N[C@@H](CCC(=O)O)C(=O)N[C@@H](CO)C(=O)N1)C(C)C)C(N)=O
With B1 as the binder, how does the Kd [1] read?
Its Kd is 500 nM.

And the Kd [2]?
Its Kd is 382 nM.

What about the Kd [3] of the same binder?
The Kd was greater than 5000 nM.

What about the Kd [4] of the same binder?
Its Kd is 457 nM.

And the Kd (PADI4 variant R394A)?
Its Kd is greater than 10000 nM.

What about the Kd (PADI4 variant C166F) of the same binder?
Its Kd is greater than 10000 nM.

And the Kd (PADI4 variant E167A)?
Its Kd is 700 nM.

And the Kd (PADI4 variant D168A)?
The Kd was 4000 nM.

What about the Kd (PADI4_D165A) of the same binder?
The Kd was 3000 nM.

What about the Kd (PADI4_N373A) of the same binder?
The Kd was greater than 10000 nM.

And the Kd [5]?
Its Kd is 457 nM.

{CH2CO}-YESCRYKQVLQL-NH2 (thioether N-4) [PADI4_11 variant with lysine at R7] was tested. Which Kd [1] did it give?
The Kd was 700 nM.

Reference: article doi:10.1101/2023.12.12.571217 (2023)
